Assay results reported in IntAct's records for PubMed 19182799.

B1: Mitochondrial intermembrane space import and assembly protein 40 (Saccharomyces cerevisiae), P36046 (parent)
chain: MLRNLVVRNACRNRPSIQVARGLCRHQTRRLMASSPQFGRNSNQEKTAGFIMGILSMAGALYFIAPNRKPLFASRKVESDKTAEEELSSGGEQSPENEDDNNSKSDENGDDNDSKNDETEAGPQLGGDKIGASKVAEDGELVVLAEEDNKSSEDKDTDESKVSTKDDEQSNEDNATANNQKDENISSENSEENTSDKTLDNNAGSSEKKDPEHSDDEKSQQGQSDDKTTTEDNNGEEESSKKTVSDSENSAKQSESSDEEKEELRKQEEKQMGPTEEEVQHEGAYNPDTGEINWDCPCLGGMAHGPCGEEFKSAFSCFVYSEAEPKGIDCVEKFQHMQDCFRKYPEHYAEQLKETSDDEEPQDKVKVNTIESAPNVSSAKENAAKKAEQSDVKKEPLNEESKP
partner: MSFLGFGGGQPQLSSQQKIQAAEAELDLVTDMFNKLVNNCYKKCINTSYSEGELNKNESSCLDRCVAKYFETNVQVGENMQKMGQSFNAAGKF
B2: Mitochondrial intermembrane space import and assembly protein 40 (Saccharomyces cerevisiae), P36046 (parent)
chain: B1 chain
partner: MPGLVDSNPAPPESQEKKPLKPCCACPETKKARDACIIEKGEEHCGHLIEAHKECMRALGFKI

Variants of: B1
Details: with tim10_yeast TIM10, P87108

| Variant | effect of a mutation on the interaction |
| --- | --- |
| C298S | decreasing interaction |
| C296S;C298S | disrupting interaction |

Variants of: B2
Details: with cox17_human COX17, Q14061

| Variant | effect of a mutation on the interaction |
| --- | --- |
| C298S | decreasing interaction |
| C296S;C298S | disrupting interaction |
